The values that follow come from patent US20050003397A1.

In this assay the target is BAT monoclonal antibody. Put plainly: competition phage ELISA; BAT (6 µg/ml) pre-incubated with increasing synthetic Peptide A, binding to immobilized Peptide A phage read. Background: In an ELISA, binding on a coated surface is turned into a signal by an enzyme label.

Turning to PRRIKPRKIMLQ [Peptide A (synthetic peptide of SEQ ID NO 1)], the IC50 – broadly, the concentration needed to halve the response being measured – turned out to be 660 nM.
